Measurements taken from US20170291954A1.

Key:
GPC3-GST fusion protein [1] = assay: ELISA, GPC3-GST fusion protein as antigen at 1 ug/ml
GPC3-GST fusion protein [2] = assay: ELISA, GPC3-GST fusion protein as antigen at 0.5 ug/ml

Chain of GPC3-GST fusion protein (P51654 368-548): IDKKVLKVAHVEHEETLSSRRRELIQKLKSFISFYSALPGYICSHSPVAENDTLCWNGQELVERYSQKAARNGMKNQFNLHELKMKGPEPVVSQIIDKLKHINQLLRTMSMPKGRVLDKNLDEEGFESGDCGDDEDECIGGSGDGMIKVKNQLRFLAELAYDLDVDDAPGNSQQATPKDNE

B1: 4E5 scFv, secreted from yeast as a fusion protein and purified on nickel-HIS beads (scFv, part only; not given: linker and fusion partner, not shown: large carriers)
scFv, part: QVQLQQSGAELVRPGASVKLSCKASGYTFNDYEMHWVKQTPVHGLKWIGALEPKTGDTAYSQKFKGKATLTADKSSSTAYMELRSLTSEDSAVYYCTSCYYYTYSGQGTLVTVSADVVMTQTPLSLPVSLGDQASISCRSSQSLVHSNGNTYLHWYLQKPGQSPKLLIYKVSNRFSGVPDRFSGSGSGTDFTLKISRVEAEDLGVYFCSQNTPVPPKFGSGTKLEIK
EC50 (GPC3-GST fusion protein [1]): 43.1 nM | EC50 (GPC3-GST fusion protein [2]): 52 nM
